Experimental findings from patent US20190256585A1 (IMMUNEMED, published 2019) are described below.

First the molecules themselves.
B1: mouse virus suppressing factor (mVSF) (antibody, V domains shown)
VH: EIQLQQSGAELVKPGASVKISCKASGYSFTGYNMNWVKQSHGKSLEWIGNIDPYYGSTTYNQKFKGKATLTVDKSSSTAYMQLNSLTSEDSAVYYCARETGTRAMDYWGQGTSVTVSS
VL: DIQMTQSPASLSASVGETVTMTCRASENIYSNLAWYQQKQGKSPQLLVYVATNLADGVPSRFSGSGSGTQFSLKINSLQPEDFGSYYCQHFYGSPRTFGGGTKLEIKR
notes: also called mouse VSF
B2: humanized virus suppressing factor wild-type (hzVSF_wt) (antibody, V domains shown)
VH: EVQLVQSGAEVKKPGASVKVSCKASGYTFTGYNMNWVRQAPGKGLEWMGNIDPYYGSTTYAQKFQGRVTMTVDKSISTAYMELSRLRSDDTAVYYCARETGTRAMDYWGQGTLVTVSS
VL: DIQMTQSPSSLSASVGDRVTITCRASENIYSNLAWYQQKPGKAPKLLIYVATNLADGVPSRFSGSGSGTDFTLTISSLQPEDFATYYCQHFYGSPRTFGGGTKVEIK
notes: also called hzVSF wild-type
B3: hzVSF_var13 (antibody, V domains shown)
VH: EVQLVQSGAEVKKPGASVKVSCKASGYTFTGYNMNWVRQAPGKGLEWMGNIDPYYGSDTYAQKFQGRVTMTVDKSISTAYMELSRLRSDDTAVYYCARETGTRAMDYWGQGTLVTVSS
VL: DIQMTQSPSSLSASVGDRVTITCRASENIYSNLAWYQQKPGKAPKLLIYVADNLADGVPSRFSGSGSGTDFTLTISSLQPEDFATYYCQHFYGSPRTFGGGTKVEIK
notes: constant regions not tied to this variant; also called hzVSF v13
B4: hzVSF_var10 (antibody, V domains shown)
VH: EVQLVQSGAEVKKPGASVKVSCKASGYTFTGYNMNWVRQAPGKGLEWMGNIDPYYGSDTYAQKFQGRVTMTVDTSASTAYMELSRLRSDDTAVYYCARETGNRAMDYWGQGTLVTVSS
VL: DIQMTQSPSSLSASVGDRVTITCRASENIYSNLAWYQQKPGKAPKLLIYVADNRGDGVPSRFSGSGSGTDFTLTISSLQPEDFATYYCQHFYGSPRTFGGGTKVEIK
notes: Humanized IgG variant of hzVSF; constant regions not tied to this variant
B5: hzVSF_var12 (antibody, V domains shown)
VH: EVQLVQSGAEVKKPGASVKVSCKASGYTFTGYNMNWVRQAPGKGLEWMGNIDPYYGSDTYAQKFQGRVTMTVDTSASTAYMELSRLRSDDTAVYYCARETGNRAMDYWGQGTLVTVSS
VL: DIQMTQSPSSLSASVGDRVTITCRASENIYSNLAWYQQKPGKAPKLLIYVADNRGDGVPSRFSGSGSGTDFTLTISSLQPEDFATYYCQHFYGTPRTFGGGTKVEIK
notes: as for B4
B6: hzVSF_var1 (antibody, V domains shown)
VH: EVQLVQSGAEVKKPGASVKVSCKASGYTFTGYNMNWVRQAPGKGLEWMGNIDPYYGSTTYAQKFQGRVTMTVDKSISTAYMELSRLRSDDTAVYYCARETGTRAMDYWGQGTLVTVSS
VL: DIQMTQSPSSLSASVGDRVTITCRASENIYSNLAWYQQKPGKAPKLLIYVADNLADGVPSRFSGSGSGTDFTLTISSLQPEDFATYYCQHFYGSPRTFGGGTKVEIK
notes: Humanized IgG variant of hzVSF; constant regions not tied to this variant; also called hzVSF_1
B7: hzVSF_var8 (antibody, V domains shown)
VH: EVQLVQSGAEVKKPGASVKVSCKASGYTFTGYNMNWVRQAPGKGLEWMGNIDPYYGSDTYAQKFQGRVTMTVDTSASTAYMELSRLRSDDTAVYYCARETGNRAMDYWGQGTLVTVSS
VL: DIQMTQSPSSLSASVGDRVTITCRASENIYSNLAWYQQKPGKAPKLLIYVATNLADGVPSRFSGSGSGTDFTLTISSLQPEDFATYYCQHFYGSPRTFGGGTKVEIK
notes: as for B4
B8: hzVSF_var5 (antibody, V domains shown)
VH: EVQLVQSGAEVKKPGASVKVSCKASGYTFTGYNMNWVRQAPGKGLEWMGNIDPYYGSDTYAQKFQGRVTMTVDKSISTAYMELSRLRSDDTAVYYCARETGTRAMDYWGQGTLVTVSS
VL: DIQMTQSPSSLSASVGDRVTITCRASENIYSNLAWYQQKPGKAPKLLIYVATNLADGVPSRFSGSGSGTDFTLTISSLQPEDFATYYCQHFYGSPRTFGGGTKVEIK
notes: as for B4
B9: hzVSF_var11 (antibody, V domains shown)
VH: EVQLVQSGAEVKKPGASVKVSCKASGYTFTGYNMNWVRQAPGKGLEWMGNIDPYYGSDTYAQKFQGRVTMTVDTSASTAYMELSRLRSDDTAVYYCARETGTRAMDYWGQGTLVTVSS
VL: DIQMTQSPSSLSASVGDRVTITCRASENIYSNLAWYQQKPGKAPKLLIYVADNRGDGVPSRFSGSGSGTDFTLTISSLQPEDFATYYCQHFYGTPRTFGGGTKVEIK
notes: as for B4
B10: hzVSF_var7 (antibody, V domains shown)
VH: EVQLVQSGAEVKKPGASVKVSCKASGYTFTGYNMNWVRQAPGKGLEWMGNIDPYYGSDTYAQKFQGRVTMTVDTSASTAYMELSRLRSDDTAVYYCARETGTRAMDYWGQGTLVTVSS
VL: DIQMTQSPSSLSASVGDRVTITCRASENIYSNLAWYQQKPGKAPKLLIYVATNLADGVPSRFSGSGSGTDFTLTISSLQPEDFATYYCQHFYGSPRTFGGGTKVEIK
notes: as for B4
B11: hzVSF_var4 (antibody, V domains shown)
VH: EVQLVQSGAEVKKPGASVKVSCKASGYTFTGYNMNWVRQAPGKGLEWMGNIDPYYGSTTYAQKFQGRVTMTVDKSISTAYMELSRLRSDDTAVYYCARETGTRAMDYWGQGTLVTVSS
VL: DIQMTQSPSSLSASVGDRVTITCRASENIYSNLAWYQQKPGKAPKLLIYVADNRGDGVPSRFSGSGSGTDFTLTISSLQPEDFATYYCQHFYGTPRTFGGGTKVEIK
notes: as for B4
B12: hzVSF_var2 (antibody, V domains shown)
VH: EVQLVQSGAEVKKPGASVKVSCKASGYTFTGYNMNWVRQAPGKGLEWMGNIDPYYGSTTYAQKFQGRVTMTVDKSISTAYMELSRLRSDDTAVYYCARETGTRAMDYWGQGTLVTVSS
VL: DIQMTQSPSSLSASVGDRVTITCRASENIYSNLAWYQQKPGKAPKLLIYVADNLGDGVPSRFSGSGSGTDFTLTISSLQPEDFATYYCQHFYGSPRTFGGGTKVEIK
notes: as for B4
B13: hzVSF_var9 (antibody, V domains shown)
VH: EVQLVQSGAEVKKPGASVKVSCKASGYTFTGYNMNWVRQAPGKGLEWMGNIDPYYGSDTYAQKFQGRVTMTVDTSASTAYMELSRLRSDDTAVYYCARETGTRAMDYWGQGTLVTVSS
VL: DIQMTQSPSSLSASVGDRVTITCRASENIYSNLAWYQQKPGKAPKLLIYVADNRGDGVPSRFSGSGSGTDFTLTISSLQPEDFATYYCQHFYGSPRTFGGGTKVEIK
notes: as for B4
B14: hzVSF_var6 (antibody, V domains shown)
VH: EVQLVQSGAEVKKPGASVKVSCKASGYTFTGYNMNWVRQAPGKGLEWMGNIDPYYGSTTYAQKFQGRVTMTVDTSASTAYMELSRLRSDDTAVYYCARETGTRAMDYWGQGTLVTVSS
VL: DIQMTQSPSSLSASVGDRVTITCRASENIYSNLAWYQQKPGKAPKLLIYVATNLADGVPSRFSGSGSGTDFTLTISSLQPEDFATYYCQHFYGSPRTFGGGTKVEIK
notes: as for B4
B15: hzVSF_var3 (antibody, V domains shown)
VH: EVQLVQSGAEVKKPGASVKVSCKASGYTFTGYNMNWVRQAPGKGLEWMGNIDPYYGSTTYAQKFQGRVTMTVDKSISTAYMELSRLRSDDTAVYYCARETGTRAMDYWGQGTLVTVSS
VL: DIQMTQSPSSLSASVGDRVTITCRASENIYSNLAWYQQKPGKAPKLLIYVADNRGDGVPSRFSGSGSGTDFTLTISSLQPEDFATYYCQHFYGSPRTFGGGTKVEIK
notes: as for B4

The first assay deals with T1, VSF receptors on L929 cells infected with EMC-D virus (mouse, UniProt P20152 2-466).
T1 construct: also called receptors of hzVSF; VR
T1 sequence (P20152 2-466 limits assumed, form in doubt): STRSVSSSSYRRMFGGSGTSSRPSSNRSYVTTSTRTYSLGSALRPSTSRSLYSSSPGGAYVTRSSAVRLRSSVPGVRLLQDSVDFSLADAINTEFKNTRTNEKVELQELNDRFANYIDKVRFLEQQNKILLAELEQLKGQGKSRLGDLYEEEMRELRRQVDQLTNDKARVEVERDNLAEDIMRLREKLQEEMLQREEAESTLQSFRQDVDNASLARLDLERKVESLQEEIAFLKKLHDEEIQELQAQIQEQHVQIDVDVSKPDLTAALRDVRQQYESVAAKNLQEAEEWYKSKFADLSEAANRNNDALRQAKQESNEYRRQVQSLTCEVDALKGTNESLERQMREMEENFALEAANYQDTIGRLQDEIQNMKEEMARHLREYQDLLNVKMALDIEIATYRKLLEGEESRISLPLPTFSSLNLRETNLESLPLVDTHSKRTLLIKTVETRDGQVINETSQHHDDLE
As to the kind of experiment: depletion of ligand from the culture supernatant of EMC-D-infected L929 cells (added minus recovered after 1 hour). How it is done:
L929 cells were seeded at the amount of 6×10⁵ cells and infected with 2 MOI of EMC-D virus for 0, 2, 6, and 10 hours, respectively. […] The difference between the amount of each ligand added and the amount of the collected ligand after reaction is the amount of the ligand bound to the receptors, and based on the result, the affinity constant (Ka) and the dissociation constant (Kd) were calculated (Table 11).
As for B1, the Ka is 2.1e+10 M⁻¹ and the affinity, expressed as Kd, was 0.047 nM.
In the same order, the values of B2 are 8.2e+09 M⁻¹ and 0.12 nM.
In the same order, the values of B3 are 1.7e+10 M⁻¹ and 0.059 nM.

Another assay addresses isolated peptide of SEQ ID NO: 1 (vimentin amino acid positions 142 to 294). Description: method not described (refers to FIGS. 54 to 58).
B2: the binding result was “binds”.
Same read-out and setting: for B4 the value was “binds”; for B5, “binds”.
Still for that read-out and setting: then B3, with “binds”.
As for B6, the binding result was “binds”.
The same measure, in the same setting: then B7, with “binds”; and B8, with “binds”.
On the same count and under the same terms, then B9, with “binds”.
Still for that read-out and setting: for B10 the value was “binds”; for B11, “binds”.
As to B12, the binding result is listed as “binds”.
The same measure, in the same setting: then B13, with “binds”; and B14, with “binds”; and B15, with “binds”.
